Experimental data taken from article PMC10180154.

What was measured:
[1] = target: T1, LRP6 (recombinant human LRP-6, Fc chimera) (Homo sapiens) (UniProt O75581); assay: CE-LIF (NECEEM); details: CE-LIF: incubation pH 8.0, 0.155% glutathione, 0.395% Tris-HCl; running buffer 50 mM borate pH 7.6, 20 kV, 25 C (CE-SELEX conditions). SPR: PBST pH 7.4, 0.05% …
T1 sequence: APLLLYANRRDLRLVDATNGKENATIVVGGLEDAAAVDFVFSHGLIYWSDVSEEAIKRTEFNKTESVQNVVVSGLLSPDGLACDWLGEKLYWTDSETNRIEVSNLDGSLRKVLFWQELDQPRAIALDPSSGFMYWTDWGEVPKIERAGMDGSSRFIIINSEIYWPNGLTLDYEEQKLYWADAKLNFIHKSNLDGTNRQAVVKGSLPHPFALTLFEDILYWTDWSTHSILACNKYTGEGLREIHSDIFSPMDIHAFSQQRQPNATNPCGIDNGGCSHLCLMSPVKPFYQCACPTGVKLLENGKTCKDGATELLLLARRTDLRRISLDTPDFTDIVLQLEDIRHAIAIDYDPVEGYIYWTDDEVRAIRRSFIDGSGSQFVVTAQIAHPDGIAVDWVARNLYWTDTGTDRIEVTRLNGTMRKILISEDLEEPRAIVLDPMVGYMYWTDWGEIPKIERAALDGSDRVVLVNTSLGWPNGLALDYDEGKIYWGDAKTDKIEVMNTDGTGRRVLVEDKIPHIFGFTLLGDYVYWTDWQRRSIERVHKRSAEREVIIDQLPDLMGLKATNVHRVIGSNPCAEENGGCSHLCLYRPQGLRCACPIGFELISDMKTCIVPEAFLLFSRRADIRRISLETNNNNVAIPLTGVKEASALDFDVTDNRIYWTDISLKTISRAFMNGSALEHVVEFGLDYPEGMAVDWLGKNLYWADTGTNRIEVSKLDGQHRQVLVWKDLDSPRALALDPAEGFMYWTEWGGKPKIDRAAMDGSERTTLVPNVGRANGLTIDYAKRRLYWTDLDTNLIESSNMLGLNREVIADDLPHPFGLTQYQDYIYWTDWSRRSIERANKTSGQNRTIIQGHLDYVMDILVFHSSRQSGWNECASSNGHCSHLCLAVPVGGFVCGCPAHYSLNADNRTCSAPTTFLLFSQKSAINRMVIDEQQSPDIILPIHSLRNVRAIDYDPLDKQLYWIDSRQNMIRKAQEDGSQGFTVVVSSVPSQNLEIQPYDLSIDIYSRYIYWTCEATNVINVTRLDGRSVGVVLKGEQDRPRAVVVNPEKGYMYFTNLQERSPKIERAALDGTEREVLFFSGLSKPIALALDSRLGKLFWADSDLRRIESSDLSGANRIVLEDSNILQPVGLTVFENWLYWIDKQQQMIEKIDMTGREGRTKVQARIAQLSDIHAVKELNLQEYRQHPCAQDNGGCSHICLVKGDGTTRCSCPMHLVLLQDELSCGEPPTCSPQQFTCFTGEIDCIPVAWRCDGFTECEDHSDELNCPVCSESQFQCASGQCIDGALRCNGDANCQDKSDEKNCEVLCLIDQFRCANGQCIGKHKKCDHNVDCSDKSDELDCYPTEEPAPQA

[2] = target: T1, LRP6 (recombinant human LRP-6, Fc chimera) (Homo sapiens); assay: SPR; details: CE-LIF: incubation pH 8.0, 0.155% glutathione, 0.395% Tris-HCl; running buffer 50 mM borate pH 7.6, 20 kV, 25 C (CE-SELEX conditions). SPR: PBST pH 7.4, 0.05% …

| Sequence | Kd [1] | Kd [2] |
| --- | --- | --- |
| AGCAGCACAGAGGTCAGATGCCGCAGGCAGCTGCCATTAGTCTCTATCCGTGACGGTATGCCTATGCGTGCTACCGTGAA [AptLRP6-A1] | 118 nM | 13.4 nM |
| AGCAGCACAGAGGTCAGATGCGACTTGCCTATCGGCATGACACAATCTTTTGGAGCGTAACCTATGCGTGCTACCGTGAA [AptLRP6-A4] | 661 nM | 51 nM |
| AGCAGCACAGAGGTCAGATGGCAGCTAAGCAGGCGGCTCACAAAACCATTCGCATGCGGCCCTATGCGTGCTACCGTGAA [AptLRP6-A3] | 105 nM | 25.7 nM |
| AGCAGCACAGAGGTCAGATGGCCACATTAGTCTCACCACTACCTGCGTACCTACCGCCGCCCTATGCGTGCTACCGTGAA [AptLRP6-A2] | 1280 nM | 173 nM |
